Patent US20110243948A1 (LEXICON PHARMACEUTICALS, published 2011)
Where a chain is given by its changes, count along the chain named. Values joined by “and” are separate entries in the source; they are usually repeats but may differ in a detail not shown here. Identical values can stand only once.

T1: SP1 peptide (synthetic peptide with the sequence of the SP1 region of ANGPTL3) (mouse and human (the sequence is the …))
T1 construct: also called ANGPTL3 SP1; hANGPTL3 SP1 peptide
T1 peptide: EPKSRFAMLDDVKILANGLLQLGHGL

T2: mouse ANGPTL3 (mouse, UniProt Q9R182 17-455, limits assumed)
T2 sequence: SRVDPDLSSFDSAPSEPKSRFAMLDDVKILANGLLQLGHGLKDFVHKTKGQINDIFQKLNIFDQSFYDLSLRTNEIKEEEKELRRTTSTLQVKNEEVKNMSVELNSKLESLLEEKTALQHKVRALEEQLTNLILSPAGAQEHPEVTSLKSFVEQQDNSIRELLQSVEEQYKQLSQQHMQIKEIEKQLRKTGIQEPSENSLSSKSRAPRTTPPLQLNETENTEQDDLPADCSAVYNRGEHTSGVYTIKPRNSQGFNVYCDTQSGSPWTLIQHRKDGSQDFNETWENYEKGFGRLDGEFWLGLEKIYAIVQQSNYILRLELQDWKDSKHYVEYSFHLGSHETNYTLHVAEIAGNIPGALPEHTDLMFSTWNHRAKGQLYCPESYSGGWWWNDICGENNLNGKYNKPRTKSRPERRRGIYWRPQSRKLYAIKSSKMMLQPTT

T3: hANGPTL3T (full-length HIS-tagged human ANGPTL3) (human, UniProt Q9Y5C1 17-460)
T3 construct: Human ANGPTL3 with a glycine and His6 at the C-terminus, purified from conditioned medium of infected CHO cells; also called full-length ANGPTL3T; human ANGPTL3T
T3 sequence: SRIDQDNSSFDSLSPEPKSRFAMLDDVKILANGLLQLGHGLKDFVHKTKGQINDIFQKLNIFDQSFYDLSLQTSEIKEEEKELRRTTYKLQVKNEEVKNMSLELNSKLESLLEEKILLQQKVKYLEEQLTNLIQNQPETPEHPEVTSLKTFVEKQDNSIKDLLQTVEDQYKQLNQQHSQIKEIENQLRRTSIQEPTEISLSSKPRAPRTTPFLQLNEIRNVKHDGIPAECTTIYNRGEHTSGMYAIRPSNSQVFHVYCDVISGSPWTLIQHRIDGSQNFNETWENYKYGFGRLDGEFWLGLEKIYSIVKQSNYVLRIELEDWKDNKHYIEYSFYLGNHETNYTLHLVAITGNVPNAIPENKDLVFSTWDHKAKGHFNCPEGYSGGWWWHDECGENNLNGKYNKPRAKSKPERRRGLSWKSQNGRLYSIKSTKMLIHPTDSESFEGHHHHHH

T4: N'-hANGPTL3T (human, UniProt Q9Y5C1 20-243)
T4 construct: also called rN'-hANGPTL3T
T4 sequence: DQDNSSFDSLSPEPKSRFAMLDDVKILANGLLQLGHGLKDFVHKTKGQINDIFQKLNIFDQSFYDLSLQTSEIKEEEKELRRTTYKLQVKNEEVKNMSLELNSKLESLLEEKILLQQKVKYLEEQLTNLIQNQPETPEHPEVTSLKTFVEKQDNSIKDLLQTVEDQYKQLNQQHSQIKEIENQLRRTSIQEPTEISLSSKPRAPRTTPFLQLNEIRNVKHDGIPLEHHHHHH

B1: antibody 4.8.3 (antibody, IgG2a, V domains shown)
VH: EVQLQQSGPELVKPGASVKMSCKASGYTFISCVMHWVKQKPGQGLEWIGYINPYNDGTKYNEKFKGKATLTSDKSSSTAYMELSSLTSEDSAVYYCAREGDYYGYFDYWGQGTTLTVSS
VL: EIQMTQTTSSLSASLGDRVTISCWASQDINNYLNWYQQKPDGTVKLLIYYTSRLHSGVPSRFSGSGSGTDYSLTISNLKQEDIATYFCQQGNTLPPTFGGGTKLEIKR
notes: Biotinylated in the alanine-scanning ELISA
B2: antibody 4.7.1 (antibody, IgG2b, V domains shown)
VH: B1 VH with I30T, C32Y, I51F
VL: B1 VL with E1D, W24R, N30S, Y32F, K79E
notes: as for B1
B3: antibody 4.9.1 (antibody, IgG1, V domains shown)
VH: B1 VH with I30T, C32Y, K63N, L83F
VL: B1 VL with E1D, W24R, N30R, K79E
notes: as for B1
B4: antibody 5.35 (antibody, IgG2a, V domains shown)
VH: QVTLKESGPGILHPSQTLTLTCSFSGFSLNTFGLAVGWIRQPSGKGLEWLGHIWWDDHKYYNGVLKSRLTISKDSSKKQVFLRIANVDTADTARYYCARLETGTGFAYWGQGTLVTVSA
VL: DIVLTQSTPSVPVTPGESVSISCRSSKSLLDSNGITYLYWFLQRPGQSPQLLIYRMSKLASGVPDRFSGSGSETAFTLRISRVEAEDVGVYYCMQPLEYPFTFGAGTKLELNG
notes: as for B1
B5: antibody 5.50 (antibody, IgG2b, V domains shown)
VH: EVQLQQSGPELVKPGASVKISCKASGFTFTDYYMNWVKQSHGESLEWIGDINPNNGGTIYNQKFRGKATLTVDKSSSTAYMELRSLTSEDSAVYYCVRLPWYFDVWGTGTTVTVSS
VL: DVLMTQTPLSLPVSLGDQASISCRSSQSILHSNGNTYLEWFLQKPGQSPKLLIYKVSNRFSGVPDRFSGSGSGTDFTLKISRVEAEDLGVYYCFQGSHVPYTFGGGTKLEIKR
notes: as for B1
B6: Fab fragment of antibody 4.7.1 (Fab, V domains shown)
VH: B1 VH with I30T, C32Y, I51F
VL: B1 VL with E1D, W24R, N30S, Y32F, K79E
B7: Fab fragment of antibody 4.8.3 (Fab, V domains shown)
VH: B1 VH
VL: B1 VL
B8: Fab fragment of antibody 4.9.1 (Fab, V domains shown)
VH: B1 VH with I30T, C32Y, K63N, L83F
VL: B1 VL with E1D, W24R, N30R, K79E

Target: T1, SP1 peptide (synthetic peptide with the …)
Experiment: antibody capture ELISA (FIG. 9)

Binder | binding result
B1 | binds

target: T2, mouse ANGPTL3; experiment: cell-based or functional assay

Binder | rescue of LPL activity (percentage increase in LPL activity in the presence of both ANGPTL3 and anti-ANGPTL3 antibody relative to ANGPTL3 alone) [%]
B2 | > 50
B1 | > 50
B3 | > 50

target: T3, hANGPTL3T (full-length HIS-tagged human …); experiment: ELISA (data not shown)

Binder | binding result
B4 | binds
B5 | binds

Target: T1, SP1 peptide (synthetic peptide with the …)
Experiment: SPR (BIACORE 3000), antibody captured on anti-mouse IgG Fc chip, SP1 peptide injected, 1:1 model
Procedure: (§1) The BIACORE® 3000 is a real-time biomolecular analysis system for detecting and quantifying protein-protein interactions using surface plasmon resonance technology. The following affinity constants were determined according to the manufacturer's instructions for the BIACORE® 3000 system: equilibrium dissociation constant (KD), association rate constant (kₒₙ), and dissociation rate constant (koff).
The BIACORE CM5 chip surface was coated with an anti-mouse IgG Fc by coupling 90 μg/ml of ImmunoPure Goat Anti-Mouse IgG Fc (Product No.: 31170, Pierce, Rockford, Ill. 61105) to the chip surface using an Amine Coupling Kit (Product No.: BR-1000-50, GE Healthcare, Uppsala Sweden). The antibody was then captured on the anti-mouse IgG Fc BIACORE chip surface by injecting the antibody at a flow rate of 10 μl/min for 30 sec. The association and dissociation phases, which are used to determine kₒₙ and koff constants, were generated by first injecting the SP1 peptide into the BIACORE® 3000 system having an antibody-coated chip surface for 2 minutes at a flow rate of 30 μl/min. […] The injection phase was used to determine the association rate constant, or kₒₙ. Following each injection, the SP1 peptide was dissociated from the antibody by flowing BIACORE HBS-EP buffer (Product No.: BR-1001-88, GE Healthcare, Uppsala Sweden) for 5 minutes over the peptide-antibody complex on the BIACORE CM5 chip surface. This dissociation phase was used to determine the dissociation rate constant, or koff. Prior to the next injection, the BIACORE chip surface was regenerated by injecting 10 mM HCl at a flow rate of 100 μl/min for 30 seconds.

Binder | Kd [nM] | koff [s⁻¹] | kon [M⁻¹ s⁻¹]
B2 | 26.1 | 0.00546 | 209000
B3 | 46.1 | 0.00778 | 169000
B4 | 1.8 | 0.0015 | 835000
B5 | 1.78 | 0.00193 | 1.08e+06

target: T4, N'-hANGPTL3T; experiment: SPR (BIACORE 3000), antigen amine-coupled to CM5 chip, Fab injected, 1:1 model
Procedure: as §1
(§2) Affinity constants of the 4.7.1, 4.8.3, and 4.9.1 antibodies for N′-hANGPTL3T and hANGPTL3T protein antigens were each determined as follows. The BIACORE CM5 chip surface was coated with a protein antigen by coupling either 10 μg/ml of N′-hANGPTL3T or 20 μg/ml of hANGPTL3T to the chip surface using an Amine Coupling Kit (Product No.: BR-1000-50, GE Healthcare, Uppsala Sweden). The association and dissociation phases, which are used to determine the kₒₙ and koff constants, were generated by first injecting a Fab fragment of the antibody (generated using a Fab Preparation Kit (Product No.: 44885, Pierce, Rockford, Ill. 61105) according to the manufacturer's instructions) into the BIACORE® 3000 system having a coated chip surface for 2 minutes at a flow rate of 30 μl/min. […] The injection phase was used to determine the association rate constant, or kₒₙ. Following each injection, the Fab fragment was dissociated from the protein antigen by flowing BIACORE HBS-EP buffer (Product No.: BR-1001-88, GE Healthcare, Uppsala Sweden) for 5 minutes over the antigen-Fab complex on the BIACORE CM5 chip surface. This dissociation phase was used to determine the dissociation rate constant, or koff. Prior to the next injection, the BIACORE chip surface was regenerated by injecting 10 mM HCl at a flow rate of 100 μl/min for 30 seconds.

Binder | Kd | koff | kon
B6 | 49.5 nM and 77.5 nM | 0.00915 s⁻¹ and 0.00899 s⁻¹ | 185000 M⁻¹ s⁻¹ and 116000 M⁻¹ s⁻¹
B7 | 210 nM and 251 nM | 0.019 s⁻¹ and 0.0275 s⁻¹ | 90000 M⁻¹ s⁻¹ and 109000 M⁻¹ s⁻¹
B8 | 45.4 nM and 55 nM | 0.00593 s⁻¹ and 0.00734 s⁻¹ | 131000 M⁻¹ s⁻¹ and 133000 M⁻¹ s⁻¹

target: T3, hANGPTL3T (full-length HIS-tagged human …); experiment: as above
Procedure: as §1, §2

Binder | Kd | koff | kon
B6 | 45.3 nM and 117 nM | 0.00796 s⁻¹ and 0.00953 s⁻¹ | 176000 M⁻¹ s⁻¹ and 81200 M⁻¹ s⁻¹
B7 | 970 nM and 450 nM | 0.0216 s⁻¹ and 0.0273 s⁻¹ | 22300 M⁻¹ s⁻¹ and 60000 M⁻¹ s⁻¹
B8 | 48.1 nM and 45.2 nM | 0.00622 s⁻¹ and 0.00777 s⁻¹ | 129000 M⁻¹ s⁻¹ and 172000 M⁻¹ s⁻¹
